Test [1] has as its target TAG-72 positive bovine submaxillary mucin (BSM) (bovine). As to the kind of experiment: relative affinity constant from competition RIA on BSM.
Test [2] concerns the target anti-idiotypic antibodies in the serum of one patient who had received ^177Lu-CC49 (Example V, patient not named). As to the kind of experiment: size-exclusion HPLC competition vs 125I-HuCC49 + patient serum. In general terms: SEC sorts molecules by how far they enter the pores of the column.
The target in test [3] is anti-CC49 variable region antibodies in the serum of patient six. As to the kind of experiment: HPLC, 125I-HuCC49 + serum + 5 Tg competitor; fewer complexes = competitor bound.
The target of test [4] is anti-CC49 variable region antibodies in the serum of patient three. The description is as above.
The target in test [5] is anti-CC49 variable region antibodies in the serum of patient one. Described as above.
In test [6] the target is anti-CC49 variable region antibodies in the serum of patient two. Described as above.
The target in test [7] is anti-CC49 variable region antibodies in the serum of patient four. The test is described as above.
The target of test [8] is anti-CC49 variable region antibodies in the serum of patient five. Described as above.
Test [9] has as its target anti-CC49 variable region antibodies in the serum of patient six. The experiment in a line: HPLC, serial dilutions of cold competitor vs 125I-HuCC49 + CP serum.
In test [10] the target is mouse anti-idiotypic MAb AI49-1. The experiment in a line: competition RIA vs 125I-CC49 on AI49-1-coated wells.
The target of test [11] is mouse anti-idiotypic MAb AI49-3. As to the kind of experiment: competition RIA vs 125I-CC49 on AI49-3-coated wells.

B1: HuCC49 CDR variant L-1 (antibody, V domains shown)
VH: QVQLVQSGAEVVKPGASVKISCKASGYTFTDHAIHWVKQNPGQRLEWIGYFSPGNDDFKYNERFKGKATLTADTSASTAYVELSSLRSEDTAVYFCTRSLNMAYWGQGTLVTVSS
VL: DIVMSQSPDSLAVSLGERVTLNCKSSQSVLYSSNSKNYLAWYQQKPGQSPKLLIYWASARESGVPDRFSGSGSGTDFTLTISSVQAEDVAVYYCQQYYSYPLTFGAGTKLELK
Turning to B1, the fold less Ka than HuCC49 in test [1] worked out at 2 fold. Besides, the amount of competitor for 50% inhibition of complex formation in test [2] worked out at 0.7 Tg. In addition, the percent of complexes in test [3] turned out to be 16.9%; in test [4], 12.2%; in test [5], 16%; in test [6] it was 10.1%; in [7] it was 9.8%; in test [8], 14.3%.

B2: HuCC49 CDR variant H-1 (antibody, V domains shown)
VH: QVQLVQSGAEVVKPGASVKISCKASGYTFTSYAMHWVKQNPGQRLEWIGYFSPGNDDFKYNERFKGKATLTADTSASTAYVELSSLRSEDTAVYFCTRSLNMAYWGQGTLVTVSS
VL: DIVMSQSPDSLAVSLGERVTLNCKSSQSLLYSGNQKNYLAWYQQKPGQSPKLLIYWASARESGVPDRFSGSGSGTDFTLTISSVQAEDVAVYYCQQYYSYPLTFGAGTKLELK
For B2, the percent of complexes in test [3] was determined as 5.8%; in [4], 3.9%; in test [5], 10.2%; in [6], 7%; in [7], 3.3%; in test [8], 3.5%.

B3: humanized monoclonal antibody HuCC49 (parental HuCC49) (antibody, V domains shown)
VH: QVQLVQSGAEVVKPGASVKISCKASGYTFTDHAIHWVKQNPGQRLEWIGYFSPGNDDFKYNERFKGKATLTADTSASTAYVELSSLRSEDTAVYFCTRSLNMAYWGQGTLVTVSS
VL: DIVMSQSPDSLAVSLGERVTLNCKSSQSLLYSGNQKNYLAWYQQKPGQSPKLLIYWASARESGVPDRFSGSGSGTDFTLTISSVQAEDVAVYYCQQYYSYPLTFGAGTKLELK
B3 displayed a Ka in test [1] of 3.2e+08 M⁻¹. The amount of competitor for 25% competition in test [9] came to 60 ng. The amount of competitor for 50% competition in test [9] is 250 ng. For the same molecule, the percent of complexes came to 1.5% in test [3]; 0% in test [4]; 0% in test [5]; 0.5% in test [6]; 2.6% in [7]; 3% in test [8].

B4: HuCC49 CDR variant H-3 (antibody, V domains shown)
VH: QVQLVQSGAEVVKPGASVKISCKASGYTFTDHAIHWVKQNPGQRLEWIGYFSPGNDDFKYNERFKGKATLTADTSASTAYVELSSLRSEDTAVYFCTRGGYYGSGSGSNYWGQGTLVTVSS
VL: DIVMSQSPDSLAVSLGERVTLNCKSSQSLLYSGNQKNYLAWYQQKPGQSPKLLIYWASARESGVPDRFSGSGSGTDFTLTISSVQAEDVAVYYCQQYYSYPLTFGAGTKLELK
Turning to B4, in test [2], the amount of competitor for 50% inhibition of complex formation came out at 0.4 Tg. Also, the percent of complexes is 6.7% in [3]; 5.1% in test [4]; 7.3% in test [5]; 8.2% in test [6]; 3.7% in test [7]; 4.6% in test [8].

B5: HuCC49 CDR variant H-2 (antibody, V domains shown)
VH: QVQLVQSGAEVVKPGASVKISCKASGYTFTDHAIHWVKQNPGQRLEWIGWINAGNGNTKYSQKFQGKATLTADTSASTAYVELSSLRSEDTAVYFCTRSLNMAYWGQGTLVTVSS
VL: DIVMSQSPDSLAVSLGERVTLNCKSSQSLLYSGNQKNYLAWYQQKPGQSPKLLIYWASARESGVPDRFSGSGSGTDFTLTISSVQAEDVAVYYCQQYYSYPLTFGAGTKLELK
As to B5, the fold more competitor for 50% inhibition than HuCC49 in test [10] and in test [11] was 4 to 15 fold in each case. The same molecule returned a fold less Ka than HuCC49 in [1] of 300 fold. Besides, in test [2], the amount of competitor for 50% inhibition of complex formation was over 10 Tg. Also, the percent of complexes in test [3] stood at 29.7%; in test [4], 32.5%; in test [5], 32.7%; in [6], 24.7%; in test [7] it was 12.7%; in [8] it was 36.6%.

B6: HuCC49 CDR variant L-1,2 (antibody, V domains shown)
VH: QVQLVQSGAEVVKPGASVKISCKASGYTFTDHAIHWVKQNPGQRLEWIGYFSPGNDDFKYNERFKGKATLTADTSASTAYVELSSLRSEDTAVYFCTRSLNMAYWGQGTLVTVSS
VL: DIVMSQSPDSLAVSLGERVTLNCKSSQSVLYSSNSKNYLAWYQQKPGQSPKLLIYWASTRESGVPDRFSGSGSGTDFTLTISSVQAEDVAVYYCQQYYSYPLTFGAGTKLELK
Molecule B6 displayed a fold less Ka than HuCC49 in test [1] of 2 fold. For the same molecule, the percent of complexes in test [3] is 15.7%; in test [4] it was 24.5%; in test [5] it was 24.6%; in test [6] it was 19.4%; in test [7], 12.6%; in test [8], 20.2%.

B7: HuCC49 CDR variant L-3 (antibody, V domains shown)
VH: QVQLVQSGAEVVKPGASVKISCKASGYTFTDHAIHWVKQNPGQRLEWIGYFSPGNDDFKYNERFKGKATLTADTSASTAYVELSSLRSEDTAVYFCTRSLNMAYWGQGTLVTVSS
VL: DIVMSQSPDSLAVSLGERVTLNCKSSQSLLYSGNQKNYLAWYQQKPGQSPKLLIYWASARESGVPDRFSGSGSGTDFTLTISSVQAEDVAVYYCQQYYSTPYSFGAGTKLELK
Regarding B7, the percent of complexes was 33.5% in test [3]; 48.2% in [4]; 34.8% in test [5]; 37.6% in test [6]; 22.4% in [7]; 46.7% in test [8].

B8: HuCC49 variant MAb ^97L/^60-62,64H (antibody, V domains shown)
VH: QVQLVQSGAEVVKPGASVKISCKASGYTFTDHAIHWVKQNPGQRLEWIGYFSPGNDDFKYSQKFQGKATLTADTSASTAYVELSSLRSEDTAVYFCTRSLNMAYWGQGTLVTVSS
VL: DIVMSQSPDSLAVSLGERVTLNCKSSQSLLYSGNQKNYLAWYQQKPGQSPKLLIYWASARESGVPDRFSGSGSGTDFTLTISSVQAEDVAVYYCQQYYSYPLSFGAGTKLELK
B8: the Ka in test [1] came out at 5.48e+08 M⁻¹.

B9: HuCC49 variant MAb ^97L1,2/^60-62,64H (antibody, V domains shown)
VH: QVQLVQSGAEVVKPGASVKISCKASGYTFTDHAIHWVKQNPGQRLEWIGYFSPGNDDFKYSQKFQGKATLTADTSASTAYVELSSLRSEDTAVYFCTRSLNMAYWGQGTLVTVSS
VL: DIVMSQSPDSLAVSLGERVTLNCKSSQSVLYSSNSKNYLAWYQQKPGQSPKLLIYWASTRESGVPDRFSGSGSGTDFTLTISSVQAEDVAVYYCQQYYSYPLSFGAGTKLELK
In turn, B9 registered a fold less Ka than HuCC49 in [1] of 3 fold. Also, the percent competition at 1 Tg in [9] is under 25%.

B10: HuCC49 CDR variant L-2 (antibody, V domains shown)
VH: QVQLVQSGAEVVKPGASVKISCKASGYTFTDHAIHWVKQNPGQRLEWIGYFSPGNDDFKYNERFKGKATLTADTSASTAYVELSSLRSEDTAVYFCTRSLNMAYWGQGTLVTVSS
VL: DIVMSQSPDSLAVSLGERVTLNCKSSQSLLYSGNQKNYLAWYQQKPGQSPKLLIYWASTRESGVPDRFSGSGSGTDFTLTISSVQAEDVAVYYCQQYYSYPLTFGAGTKLELK
For the molecule B10, in test [2], the fold better competition than HuCC49 came to 2 fold. For the same molecule, the percent of complexes is 3% in test [3]; 3.4% in [4]; 2.7% in test [5]; 4.4% in test [6]; 2.7% in test [7]; 2.4% in [8].

B11: HuCC49 variant ^97L1,2 (antibody, V domains shown)
VH: QVQLVQSGAEVVKPGASVKISCKASGYTFTDHAIHWVKQNPGQRLEWIGYFSPGNDDFKYNERFKGKATLTADTSASTAYVELSSLRSEDTAVYFCTRSLNMAYWGQGTLVTVSS
VL: DIVMSQSPDSLAVSLGERVTLNCKSSQSVLYSSNSKNYLAWYQQKPGQSPKLLIYWASTRESGVPDRFSGSGSGTDFTLTISSVQAEDVAVYYCQQYYSYPLSFGAGTKLELK
Regarding B11, in [1], the Ka was 1.4e+08 M⁻¹ and the fold less Ka than HuCC49 was in the range of 2 to 3 fold.

B12: HuCC49 SDR variant ^97L (antibody, V domains shown)
VH: QVQLVQSGAEVVKPGASVKISCKASGYTFTDHAIHWVKQNPGQRLEWIGYFSPGNDDFKYNERFKGKATLTADTSASTAYVELSSLRSEDTAVYFCTRSLNMAYWGQGTLVTVSS
VL: DIVMSQSPDSLAVSLGERVTLNCKSSQSLLYSGNQKNYLAWYQQKPGQSPKLLIYWASARESGVPDRFSGSGSGTDFTLTISSVQAEDVAVYYCQQYYSYPLSFGAGTKLELK
The molecule B12 yielded a Ka in test [1] of 3.6e+08 M⁻¹.

B13: HuCC49 SDR variant ^60-62,64H (antibody, V domains shown)
VH: QVQLVQSGAEVVKPGASVKISCKASGYTFTDHAIHWVKQNPGQRLEWIGYFSPGNDDFKYSQKFQGKATLTADTSASTAYVELSSLRSEDTAVYFCTRSLNMAYWGQGTLVTVSS
VL: DIVMSQSPDSLAVSLGERVTLNCKSSQSLLYSGNQKNYLAWYQQKPGQSPKLLIYWASARESGVPDRFSGSGSGTDFTLTISSVQAEDVAVYYCQQYYSYPLTFGAGTKLELK
B13: in test [1], the Ka came to 2.2e+08 M⁻¹.

The values are drawn from patent US20080050810A1.
